In US20230002480A1:

Tests used:
Assay in all cases: cell-based or functional assay
[1] = molecular target: HIV-1 Env of pseudovirus CAP210.2.00.E8 (HIV-1)
[2] = molecular target: HIV-1 Env of pseudovirus Ce703010054_2A2 (HIV-1)
[3] = molecular target: HIV-1 Env of pseudovirus Q259.d2.17 (HIV-1)
[4] = molecular target: HIV-1 Env of pseudovirus R3265.c06 (HIV-1)
[5] = molecular target: HIV-1 Env of pseudovirus 1056_10_TA11_1826 (HIV-1)
[6] = molecular target: HIV-1 Env of pseudovirus R2184.c04 (HIV-1)
[7] = molecular target: HIV-1 Env of pseudovirus ZM233M.PB6 (HIV-1)
[8] = molecular target: HIV-1 Env of pseudovirus C3347.c11 (HIV-1)
[9] = molecular target: HIV-1 Env of pseudovirus 235-47 (HIV-1)
[10] = molecular target: HIV-1 Env of pseudovirus 6535.3 (HIV-1)
[11] = molecular target: HIV-1 Env of pseudovirus T251-18 (HIV-1)
[12] = molecular target: HIV-1 Env of pseudovirus 1054_07_TC4_1499 (HIV-1)
[13] = molecular target: HIV-1 Env of pseudovirus Ce0682_E4 (HIV-1)
[14] = molecular target: HIV-1 Env of pseudovirus 3301.v1.c24 (HIV-1)
[15] = molecular target: HIV-1 Env of pseudovirus 620345.c01 (HIV-1)
[16] = molecular target: HIV-1 Env of pseudovirus Q842.d12 (HIV-1)
[17] = molecular target: HIV-1 Env of pseudovirus 246F C1G (HIV-1)
[18] = molecular target: HIV-1 Env of pseudovirus 191084 B7-19 (HIV-1)
[19] = molecular target: HIV-1 Env of pseudovirus X1193_c1 (HIV-1)
[20] = molecular target: HIV-1 Env of pseudovirus 3817.v2.c59 (HIV-1)
[21] = molecular target: HIV-1 Env of pseudovirus HIV-001428-2.42 (HIV-1)
[22] = molecular target: HIV-1 Env of pseudovirus 0815.v3.c3 (HIV-1)
[23] = molecular target: HIV-1 Env of pseudovirus REJO4541.67 (HIV-1)
[24] = molecular target: HIV-1 Env of pseudovirus 3103.v3.c10 (HIV-1)
[25] = molecular target: HIV-1 Env of pseudovirus 62357_14_D3_4589 (HIV-1)
[26] = molecular target: HIV-1 Env of pseudovirus CNE58 (HIV-1)
[27] = molecular target: HIV-1 Env of pseudovirus BJOX009000.02.4 (HIV-1)
[28] = molecular target: HIV-1 Env of pseudovirus C1080.c03 (HIV-1)
[29] = molecular target: HIV-1 Env of pseudovirus CNE8 (HIV-1)
[30] = molecular target: HIV-1 Env of pseudovirus Du172.17 (HIV-1)
[31] = molecular target: HIV-1 Env of pseudovirus CAAN5342.A2 (HIV-1)
[32] = molecular target: HIV-1 Env of pseudovirus 249M B10 (HIV-1)
[33] = molecular target: HIV-1 Env of pseudovirus 7030102001E5(Rev-) (HIV-1)
[34] = molecular target: HIV-1 Env of pseudovirus X1254_c3 (HIV-1)
[35] = molecular target: HIV-1 Env of pseudovirus Ce704809221_1B3 (HIV-1)
[36] = molecular target: HIV-1 Env of pseudovirus Ce0393_C3 (HIV-1)
[37] = molecular target: HIV-1 Env of pseudovirus HIV-16055-2.3 (HIV-1)

Q: With PGT128 (antibody) as the substance, how does the IC50 [1] read?
A: > 50 mg/L

Q: And the IC80 [1]?
A: > 50 mg/L

Q: And the IC50 [2]?
A: > 50 mg/L

Q: And the IC80 [2]?
A: > 50 mg/L

Q: And the IC50 [3]?
A: > 50 mg/L

Q: What about the IC80 [3] of the same substance?
A: > 50 mg/L

Q: And the IC50, titer in TZM.bl cells [4]?
A: > 50 mg/L

Q: What about the IC80, titer in TZM.bl cells [4] of the same substance?
A: > 50 mg/L

Q: What about the IC50 [5] of the same substance?
A: < 0.001 mg/L

Q: What about the IC80 [5] of the same substance?
A: 0.008 mg/L

Q: And the IC50, titer in TZM.bl cells [6]?
A: 20.1 mg/L

Q: And the IC80, titer in TZM.bl cells [6]?
A: > 50 mg/L

Q: What about the IC50 [7] of the same substance?
A: > 50 mg/L

Q: What about the IC80 [7] of the same substance?
A: > 50 mg/L

Q: What about the IC50, titer in TZM.bl cells [8] of the same substance?
A: 0.001 mg/L

Q: What about the IC80, titer in TZM.bl cells [8] of the same substance?
A: 0.007 mg/L

Q: What about the IC50, titer in TZM.bl cells [9] of the same substance?
A: > 50 mg/L

Q: What about the IC80, titer in TZM.bl cells [9] of the same substance?
A: > 50 mg/L

Q: What about the IC50 [10] of the same substance?
A: 0.004 mg/L

Q: And the IC80 [10]?
A: 0.016 mg/L

Q: What about the IC50, titer in TZM.bl cells [11] of the same substance?
A: > 50 mg/L

Q: And the IC80, titer in TZM.bl cells [11]?
A: > 50 mg/L

Q: And the IC50 [12]?
A: 0.035 mg/L

Q: And the IC80 [12]?
A: 0.312 mg/L

Q: What about the IC50 [13] of the same substance?
A: > 50 mg/L

Q: What about the IC80 [13] of the same substance?
A: > 50 mg/L

Q: And the IC50, titer in TZM.bl cells [14]?
A: 0.067 mg/L

Q: What about the IC80, titer in TZM.bl cells [14] of the same substance?
A: 0.499 mg/L

Q: And the IC50, titer in TZM.bl cells [15]?
A: > 50 mg/L

Q: And the IC80, titer in TZM.bl cells [15]?
A: > 50 mg/L

Q: And the IC50 [16]?
A: 0.008 mg/L

Q: And the IC80 [16]?
A: 0.102 mg/L

Q: What about the IC50 [17] of the same substance?
A: 0.005 mg/L

Q: What about the IC80 [17] of the same substance?
A: 0.014 mg/L

Q: What about the IC50 [18] of the same substance?
A: 0.022 mg/L

Q: And the IC80 [18]?
A: 0.152 mg/L

Q: And the IC50, titer in TZM.bl cells [19]?
A: > 50 mg/L

Q: And the IC80, titer in TZM.bl cells [19]?
A: > 50 mg/L

Q: What about the IC50, titer in TZM.bl cells [20] of the same substance?
A: 0.003 mg/L

Q: What about the IC80, titer in TZM.bl cells [20] of the same substance?
A: 0.023 mg/L

Q: And the IC50 [21]?
A: 0.026 mg/L

Q: What about the IC80 [21] of the same substance?
A: 0.095 mg/L

Q: What about the IC50, titer in TZM.bl cells [22] of the same substance?
A: 0.03 mg/L

Q: And the IC80, titer in TZM.bl cells [22]?
A: 0.137 mg/L

Q: What about the IC50 [23] of the same substance?
A: > 50 mg/L

Q: And the IC80 [23]?
A: > 50 mg/L

Q: What about the IC50, titer in TZM.bl cells [24] of the same substance?
A: 0.014 mg/L

Q: What about the IC80, titer in TZM.bl cells [24] of the same substance?
A: 0.033 mg/L

Q: And the IC50 [25]?
A: 1.14 mg/L

Q: What about the IC80 [25] of the same substance?
A: > 50 mg/L

Q: And the IC50 [26]?
A: 13.8 mg/L

Q: And the IC80 [26]?
A: > 50 mg/L

Q: What about the IC50, titer in TZM.bl cells [27] of the same substance?
A: < 0.001 mg/L

Q: And the IC80, titer in TZM.bl cells [27]?
A: 0.005 mg/L

Q: And the IC50, titer in TZM.bl cells [28]?
A: 0.283 mg/L

Q: What about the IC80, titer in TZM.bl cells [28] of the same substance?
A: 2.06 mg/L

Q: And the IC50, titer in TZM.bl cells [29]?
A: 0.019 mg/L

Q: What about the IC80, titer in TZM.bl cells [29] of the same substance?
A: 0.052 mg/L

Q: What about the IC50 [30] of the same substance?
A: 0.028 mg/L

Q: What about the IC80 [30] of the same substance?
A: 0.08 mg/L

Q: What about the IC50 [31] of the same substance?
A: 0.514 mg/L

Q: What about the IC80 [31] of the same substance?
A: > 50 mg/L

Q: What about the IC50 [32] of the same substance?
A: 7.87 mg/L

Q: And the IC80 [32]?
A: > 50 mg/L

Q: And the IC50 [33]?
A: 0.007 mg/L

Q: What about the IC80 [33] of the same substance?
A: 0.022 mg/L

Q: What about the IC50, titer in TZM.bl cells [34] of the same substance?
A: > 50 mg/L

Q: What about the IC80, titer in TZM.bl cells [34] of the same substance?
A: > 50 mg/L

Q: What about the IC50 [35] of the same substance?
A: 0.026 mg/L

Q: And the IC80 [35]?
A: 0.072 mg/L

Q: What about the IC50 [36] of the same substance?
A: > 50 mg/L

Q: What about the IC80 [36] of the same substance?
A: > 50 mg/L

Q: And the IC50 [37]?
A: > 50 mg/L

Q: And the IC80 [37]?
A: > 50 mg/L
